EC50 and Kd data for three substances are collected here from patent US20190233517A1.

Test [1] has as its target Raji (human) (UniProt P11836). The test is described as follows: FACS binding; Raji cells.
The target in test [2] is Daudi. The test is described as follows: FACS binding; Daudi cells.
For test [3], the target named is HER3 (UniProt P21860). The test is described as follows: kinetic binding data, method not stated.

Sequence of Raji (human) (P11836 whole entry): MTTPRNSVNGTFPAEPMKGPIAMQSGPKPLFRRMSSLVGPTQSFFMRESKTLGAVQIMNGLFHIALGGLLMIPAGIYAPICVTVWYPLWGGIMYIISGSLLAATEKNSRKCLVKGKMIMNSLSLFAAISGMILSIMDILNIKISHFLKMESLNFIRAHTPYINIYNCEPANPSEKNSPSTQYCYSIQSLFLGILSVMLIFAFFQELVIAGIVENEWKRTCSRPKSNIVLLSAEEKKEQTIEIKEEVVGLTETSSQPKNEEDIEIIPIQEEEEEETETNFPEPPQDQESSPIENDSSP

As usually defined, the EC50 is the concentration giving half of the maximal effect. In test [1], Epratuzuman/ Ofatumumab (1:1) yielded an EC50 of 3.25 nM.

Epratuzumab/ Ofatumumab (1:1) registered a concentration for a half-maximal effect (EC50) in test [2] of 6.98 nM.

As usually defined, the Kd is the equilibrium constant for the complex coming apart. A lower Kd goes with a tighter complex. Turning to “FIT019a-Ig HER3 (patritumab)/EGFR (Panitumumab) (bispecific antibody)”, the Kd in test [3] amounted to 0.0321 nM.
